Measurements published in patent US20240294670A1 (University of Texas, published 2024).

Assays:
Assay in all cases: anti-His co-IP of rCHI3L1 from Kupffer cell lysate, MS; listed under 'proteins bound to CHI3L1'
Q3TF14_MOUSE = target: T1, Q3TF14_MOUSE (mouse, UniProt Q3TF14 2-432)
T1 construct: also called tr|Q3TF14|Q3TF14_MOUSE
T1 sequence: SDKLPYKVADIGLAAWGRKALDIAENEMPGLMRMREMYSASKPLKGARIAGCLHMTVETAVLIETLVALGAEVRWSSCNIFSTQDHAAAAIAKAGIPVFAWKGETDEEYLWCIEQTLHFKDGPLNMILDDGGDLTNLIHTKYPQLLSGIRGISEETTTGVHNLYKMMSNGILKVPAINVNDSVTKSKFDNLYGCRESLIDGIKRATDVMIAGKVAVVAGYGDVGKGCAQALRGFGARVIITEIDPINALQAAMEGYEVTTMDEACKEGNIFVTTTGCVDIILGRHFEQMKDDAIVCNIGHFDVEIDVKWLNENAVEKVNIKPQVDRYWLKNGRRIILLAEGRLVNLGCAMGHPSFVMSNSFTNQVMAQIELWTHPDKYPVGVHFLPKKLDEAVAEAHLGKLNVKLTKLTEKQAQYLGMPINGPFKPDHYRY
Experimental: (§1) CHI3L1 interacts with CD44 on KCs. To further understand how CHI3L1 mediates the function of KCs to recruit platelets, the inventors set out to identify its receptor on KCs. They isolated KCs from WT mice treated with APAP for 3 h and incubated the cells with His-tagged rCHI3L1. The cell lysate was subjected to immunoprecipitation using an anti-His antibody. The “pulled down” fraction was subjected to LC/MS analyses. A partial list of proteins identified, including CHI3L1 itself, is shown in (Extended Data Table 1). Because CD44 is a cell membrane protein, the inventors decided to investigate it is a receptor for CHI3L1. They performed/immunoprecipitation experiments using liver homogenates obtained from WT and CD44^{-/-} mice after APAP treatment. […] Moreover, the inventors incubated rhCHI3L1 with human CD44 and then immunoprecipitated with an anti-CD44 antibody. The data confirmed a direct binding between CHI3L1 and CD44 (FIG. 3C). Consistent with the notion that many cell types express CD44, they detected CD44 express on various hepatic non-parenchymal cells (NPCs) except B cells and DCs (summarized in Extended Data Table 2). However, when they incubated liver NPCs with His-tagged rCHI3L1, the inventors observed that the only CD44-expressing cells that could bind to CHI3L1 were KCs (FIG. 3D).

Q3TVM2_MOUSE = target: T2, Q3TVM2_MOUSE (mouse, UniProt Q3TVM2 20-519)
T2 construct: also called tr|Q3TVM2|Q3TVM2_MOUSE
T2 sequence: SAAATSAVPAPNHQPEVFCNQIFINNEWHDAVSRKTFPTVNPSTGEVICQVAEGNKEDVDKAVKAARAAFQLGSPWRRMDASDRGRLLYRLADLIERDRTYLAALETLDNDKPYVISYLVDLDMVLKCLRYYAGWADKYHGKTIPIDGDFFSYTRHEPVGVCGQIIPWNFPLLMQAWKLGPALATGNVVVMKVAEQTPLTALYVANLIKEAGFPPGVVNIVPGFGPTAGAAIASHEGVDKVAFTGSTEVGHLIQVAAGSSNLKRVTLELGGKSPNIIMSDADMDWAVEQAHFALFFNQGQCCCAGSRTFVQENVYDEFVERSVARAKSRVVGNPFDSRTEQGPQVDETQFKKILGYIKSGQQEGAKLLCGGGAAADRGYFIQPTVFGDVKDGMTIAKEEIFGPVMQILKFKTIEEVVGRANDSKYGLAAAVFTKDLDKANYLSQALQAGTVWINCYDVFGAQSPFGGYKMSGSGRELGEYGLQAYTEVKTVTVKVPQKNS
Experimental: as §1

Q3UEQ9_MOUSE = target: T3, Q3UEQ9_MOUSE (mouse, UniProt Q3UEQ9 28-926)
T3 construct: also called tr|Q3UEQ9|Q3UEQ9_MOUSE
T3 sequence: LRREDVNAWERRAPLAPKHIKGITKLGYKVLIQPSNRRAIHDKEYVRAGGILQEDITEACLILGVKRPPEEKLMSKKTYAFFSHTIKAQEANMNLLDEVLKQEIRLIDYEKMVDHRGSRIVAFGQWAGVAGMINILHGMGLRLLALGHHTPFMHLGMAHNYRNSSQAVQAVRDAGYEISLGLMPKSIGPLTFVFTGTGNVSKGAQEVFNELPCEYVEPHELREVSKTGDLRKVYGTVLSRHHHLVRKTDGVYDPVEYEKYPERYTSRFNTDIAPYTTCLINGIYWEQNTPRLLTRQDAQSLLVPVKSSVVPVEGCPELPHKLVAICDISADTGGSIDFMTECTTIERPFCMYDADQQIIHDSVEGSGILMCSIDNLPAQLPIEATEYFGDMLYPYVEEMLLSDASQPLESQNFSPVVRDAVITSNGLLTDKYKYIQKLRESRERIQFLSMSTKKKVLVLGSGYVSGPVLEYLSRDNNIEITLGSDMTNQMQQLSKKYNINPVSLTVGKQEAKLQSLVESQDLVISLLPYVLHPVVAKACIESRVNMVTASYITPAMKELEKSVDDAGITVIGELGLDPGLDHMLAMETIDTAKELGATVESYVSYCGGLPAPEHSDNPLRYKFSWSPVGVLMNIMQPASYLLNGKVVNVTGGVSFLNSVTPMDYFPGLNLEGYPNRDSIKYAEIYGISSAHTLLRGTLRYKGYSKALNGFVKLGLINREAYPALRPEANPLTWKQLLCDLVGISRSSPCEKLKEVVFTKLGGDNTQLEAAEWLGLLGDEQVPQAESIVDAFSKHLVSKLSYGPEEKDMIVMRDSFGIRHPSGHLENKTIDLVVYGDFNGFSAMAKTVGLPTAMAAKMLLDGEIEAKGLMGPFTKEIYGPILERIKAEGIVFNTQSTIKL
Experimental: as §1

Q3TJ66_MOUSE = target: T4, Q3TJ66_MOUSE (mouse, UniProt Q3TJ66 2-364)
T4 construct: also called tr|Q3TJ66|Q3TJ66_MOUSE
T4 sequence: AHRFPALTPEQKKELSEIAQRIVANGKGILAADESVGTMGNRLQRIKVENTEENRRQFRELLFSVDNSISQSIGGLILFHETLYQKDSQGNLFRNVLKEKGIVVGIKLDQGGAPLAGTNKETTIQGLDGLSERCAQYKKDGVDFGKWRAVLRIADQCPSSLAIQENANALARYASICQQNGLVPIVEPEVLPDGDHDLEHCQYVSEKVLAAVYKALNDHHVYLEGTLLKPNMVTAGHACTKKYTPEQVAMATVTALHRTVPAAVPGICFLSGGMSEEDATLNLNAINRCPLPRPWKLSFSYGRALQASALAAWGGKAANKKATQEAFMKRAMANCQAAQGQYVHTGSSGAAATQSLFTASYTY
Experimental: as §1

binding result (Q3TF14_MOUSE): binds
binding result (Q3TVM2_MOUSE): binds
binding result (Q3UEQ9_MOUSE): binds
binding result (Q3TJ66_MOUSE): binds
B1: recombinant mouse CHI3L1 (ligand)
chain: not shown
notes: His-tagged; also called mCHI3L1; mChi3l1
